Assay [1] has as its target T1, recombinant human fractalkine (CX3CL1; R&D systems) (human, UniProt P78423 25-100).
T1 sequence (looked up): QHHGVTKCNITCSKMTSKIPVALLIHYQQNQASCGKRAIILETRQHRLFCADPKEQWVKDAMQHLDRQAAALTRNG
As to the kind of experiment: ELISA on recombinant human fractalkine.

Assay [2] addresses T2, G protein of RSV strain 18537 (subtype B) (human respiratory syncytial virus …, UniProt P20896 1-292).
T2 sequence: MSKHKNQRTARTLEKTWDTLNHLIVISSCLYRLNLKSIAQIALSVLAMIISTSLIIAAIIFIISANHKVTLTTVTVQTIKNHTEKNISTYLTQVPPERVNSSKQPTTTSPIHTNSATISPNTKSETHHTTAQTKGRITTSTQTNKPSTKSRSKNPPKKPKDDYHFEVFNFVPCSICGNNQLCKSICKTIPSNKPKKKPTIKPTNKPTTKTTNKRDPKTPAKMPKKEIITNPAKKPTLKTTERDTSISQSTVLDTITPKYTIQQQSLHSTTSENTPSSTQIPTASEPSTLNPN
In words: cell-based or functional assay.

The target of assay [3] is T3, G protein of RSV strain Long (subtype A) (human respiratory syncytial virus …, UniProt P20895 1-298).
T3 chain: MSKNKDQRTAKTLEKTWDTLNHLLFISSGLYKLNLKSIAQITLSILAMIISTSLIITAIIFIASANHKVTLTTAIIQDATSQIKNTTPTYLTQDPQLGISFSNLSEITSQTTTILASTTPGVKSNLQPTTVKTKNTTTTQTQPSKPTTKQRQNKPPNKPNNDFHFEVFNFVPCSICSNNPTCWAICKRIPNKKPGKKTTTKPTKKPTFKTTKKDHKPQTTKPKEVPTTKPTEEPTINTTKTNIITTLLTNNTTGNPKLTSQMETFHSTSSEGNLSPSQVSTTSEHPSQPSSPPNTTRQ
In words: cell-based or functional assay.

Assay [4] concerns the target F protein of RSV strain 18537 (human respiratory syncytial virus …, UniProt P13843 26-574). As to the kind of experiment: cell-based or functional assay.
Assay [5] addresses F protein of RSV strain A2 (human respiratory syncytial virus …, UniProt P03420 26-574). As to the kind of experiment: cell-based or functional assay.
For assay [6], the target named is F protein of RSV strain Long (human respiratory syncytial virus …, UniProt P12568 26-574). As to the kind of experiment: cell-based or functional assay.
Chain of F protein of RSV strain Long (P12568 26-574): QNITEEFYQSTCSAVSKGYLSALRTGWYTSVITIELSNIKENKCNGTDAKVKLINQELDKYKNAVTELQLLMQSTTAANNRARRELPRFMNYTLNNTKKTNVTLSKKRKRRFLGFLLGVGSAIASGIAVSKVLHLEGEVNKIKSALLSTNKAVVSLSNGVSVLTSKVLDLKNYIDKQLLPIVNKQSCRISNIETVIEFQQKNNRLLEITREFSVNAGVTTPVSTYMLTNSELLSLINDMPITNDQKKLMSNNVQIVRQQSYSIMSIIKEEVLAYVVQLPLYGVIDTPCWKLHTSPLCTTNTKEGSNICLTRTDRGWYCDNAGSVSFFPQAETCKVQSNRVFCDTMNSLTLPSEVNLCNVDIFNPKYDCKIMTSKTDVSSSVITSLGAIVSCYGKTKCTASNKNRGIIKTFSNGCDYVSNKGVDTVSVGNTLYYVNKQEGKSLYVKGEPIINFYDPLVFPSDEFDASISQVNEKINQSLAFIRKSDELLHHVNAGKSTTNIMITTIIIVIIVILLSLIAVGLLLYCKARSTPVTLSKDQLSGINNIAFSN

Chain of F protein of RSV strain A2 (P03420 26-574): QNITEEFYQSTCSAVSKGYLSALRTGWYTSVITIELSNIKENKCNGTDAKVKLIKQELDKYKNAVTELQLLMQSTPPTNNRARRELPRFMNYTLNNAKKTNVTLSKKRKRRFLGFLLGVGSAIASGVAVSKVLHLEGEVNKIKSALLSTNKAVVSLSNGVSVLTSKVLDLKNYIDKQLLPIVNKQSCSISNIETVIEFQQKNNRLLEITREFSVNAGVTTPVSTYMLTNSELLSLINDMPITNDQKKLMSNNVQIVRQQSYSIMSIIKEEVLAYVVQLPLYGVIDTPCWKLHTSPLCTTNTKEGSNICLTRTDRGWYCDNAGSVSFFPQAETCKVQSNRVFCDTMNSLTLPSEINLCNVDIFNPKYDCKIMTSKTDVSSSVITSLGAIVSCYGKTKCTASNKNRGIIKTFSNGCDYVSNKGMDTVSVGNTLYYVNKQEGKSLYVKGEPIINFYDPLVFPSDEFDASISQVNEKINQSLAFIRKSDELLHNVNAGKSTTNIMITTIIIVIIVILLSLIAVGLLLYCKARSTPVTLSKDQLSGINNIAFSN
Chain of F protein of RSV strain 18537 (P13843 26-574): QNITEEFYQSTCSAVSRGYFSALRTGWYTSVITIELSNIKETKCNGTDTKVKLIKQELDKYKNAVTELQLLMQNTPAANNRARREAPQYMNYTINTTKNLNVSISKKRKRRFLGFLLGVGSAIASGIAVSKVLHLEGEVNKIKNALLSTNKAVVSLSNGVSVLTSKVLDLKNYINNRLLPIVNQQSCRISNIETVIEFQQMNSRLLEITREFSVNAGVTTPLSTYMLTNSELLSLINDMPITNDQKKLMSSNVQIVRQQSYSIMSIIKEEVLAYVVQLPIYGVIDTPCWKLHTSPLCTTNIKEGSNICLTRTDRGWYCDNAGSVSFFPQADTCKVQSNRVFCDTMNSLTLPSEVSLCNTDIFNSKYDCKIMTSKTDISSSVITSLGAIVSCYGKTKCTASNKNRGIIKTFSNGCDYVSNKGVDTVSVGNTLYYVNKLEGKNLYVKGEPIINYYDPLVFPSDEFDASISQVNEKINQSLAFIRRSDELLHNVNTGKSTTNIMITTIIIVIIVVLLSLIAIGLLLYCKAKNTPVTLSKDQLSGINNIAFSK

B1: antibody 853 (clone 853) (antibody, human IgG1, kappa, V domains shown)
VH: EVQLVQSGAEVKKPGQSLKISCKTSGYIFTNYWIGWVRQRPGKGLEWMGVIFPADSDARYSPSFQGQVTISADKSIGTAYLQWSSLKASDTAIYYCARPKYYFDSSGQFSEMYYFDFWGQGTLVTVSS
VL: EIVLTQSPGTLSLSPGERATLSCRASQSVSSNYLAWYQQKPGQAPRLLIYGASSRAAGMPDRFSGSGSGTDFTLTISRLEPEDFAVYYCQQYGNSPLTFGGGTEVEIKR
For the molecule B1, in assay [1], the binding result was “no binding”. Moreover, in assay [2], the “EC50, PRNT with complement, RSV 18537” value was found to be 0.14 µg/mL. For the same molecule, in assay [3], the “EC50, PRNT with complement, RSV Long” value stood at 1.49 µg/mL and the “EC50, PRNT with complement, RSV Long (new determination)” value was 0.13 µg/mL.

B2: antibody 841 (clone 841) (antibody, human IgG1, kappa, V domains shown)
VH: QVQLVQSGAEVKKPGASVKVSCKASGYTFISFGISWVRQAPGQGLEWMGWISAYNGNTDYAQRLQDRVTMTRDTATSTAYLELRSLKSDDTAVYYCTRDESMLRGVTEGFGPIDYWGQGTLVTVSS
VL: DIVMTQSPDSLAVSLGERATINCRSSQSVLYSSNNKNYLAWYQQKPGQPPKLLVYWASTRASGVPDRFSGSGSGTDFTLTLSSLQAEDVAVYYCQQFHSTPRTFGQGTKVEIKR
For B2, in assay [1], the binding result is given as “no binding”.

B3: Palivizumab (Synagis) (antibody, V domains shown)
VH: QVTLRESGPALVKPTQTLTLTCTFSGFSLSTSGMSVGWIRQPPGKALEWLADIWWDDKKDYNPSLKSRLTISKDTSKNQVVLKVTNMDPADTATYYCARSMITNWYFDVWGAGTTVTVSS
VL: DIQMTQSPSTLSASVGDRVTITCKCQLSVGYMHWYQQKPGKAPKLLIYDTSKLASGVPSRFSGSGSGTEFTLTISSLQPDDFATYYCFQGSGYPFTFGGGTKLEIK
For the molecule B3, the “EC50, PRNT with complement, RSV 18537” value in assay [4] turned out to be 0.2 µg/mL. In addition, in assay [5], the “EC50, PRNT with complement, RSV A2” value is 0.15 µg/mL. In addition, the “EC50, PRNT with complement, RSV Long” value in assay [6] was found to be 0.14 µg/mL.

B4: antibody 793 (clone 793) (antibody, human IgG1, kappa, V domains shown)
VH: QVQLVESGGGLVKPGGSLRLSCAASGFPFGDYYMSWIRQAPGKGLEWVAYINRGGTTIYYADSVKGRFTISRDNAKNSLFLQMNSLRAGDTALYYCARGLILALPTATVELGAFDIWGQGTMVTVSS
VL: DIQMTQSPSSLSASVGDRVTITCRASQSITGYLNWYQQKPGKAPKLLIYATSTLQSEVPSRFSGSGSGTDFTLTISSLQPEDFATYYCQQSYNTLTFGGGTKVEIKR
In the case of B4, the binding result in assay [1] is listed as “no binding”. In addition, the “EC50, PRNT with complement, RSV 18537” value in assay [2] amounted to 0.09 µg/mL. In assay [3], the “EC50, PRNT with complement, RSV Long” value was determined as 2.52 µg/mL.

B5: antibody 855 (clone 855) (antibody, human IgG1, kappa, V domains shown)
VH: QVQLVQSGPEVKKPGASVKVSCKASGYVLTNYAFSWVRQAPGQGLEWLGWISGSNGNTYYAEKFQGRVTMTTDTSTSTAYMELRSLRSDDTAVYFCARDLLRSTYFDYWGQGTLVTVSS
VL: DIQMTQSPSSVSASVGDRVTITCRASQAISNWLAWYQQKPGKAPKLLIYAASSLQSGVPSRFSGSGSGTDFTLTISGLQPEDFATYYCQQADTFPFTFGPGTKVDIKR
For B5, the binding result in assay [1] was “no binding”. Moreover, the “EC50, PRNT with complement, RSV Long” value in assay [3] was determined as 6.35 µg/mL.

B6: antibody 856 (clone 856) (antibody, human IgG1, kappa, V domains shown)
VH: QVQLVQSGAEVKKPGASVKVSCKASGYTFSNYGFSWVRQAPGRGLEWMGWISAYNGNTYYAQNLQGRVTMTTDTSTTTAYMVLRSLRSDDTAMYYCARDGNTAGVDMWSRDGFDIWGQGTMVTVSS
VL: DIVMTQTPLSLPVTPGEPASISCRSSQSLLDSNDGNTYLDWYLQKPGQSPQLLIYTFSYRASGVPDRFSGSGSGTDFTLKISRVEAEDVGVYYCMQRIEFPYTFGQGTKLEIKR
For B6, the binding result in assay [1] is recorded as “no binding”.

B7: antibody 888 (clone 888) (antibody, human IgG1, kappa, V domains shown)
VH: QLQLQESGPGLVKPSETLSLTCTASGGSINSSNFYWGWIRQPPGKGLEWIGSIFYSGTTYYNPSLKSRVTISVDTSKNQFSLKLSPVTAADTAVYHCARHGFRYCNNGVCSINLDAFDIWGQGTMVTVSS
VL: DIVMTQSPLSLPVTPGAPASISCRSSQSLLRTNGYNYLDWYLQKPGQSPQLLIYLGSIRASGVPDRFSGSGSGTDFTLKISRVEAEDVGVYYCMQSLQTSITFGQGTRLEIKR
On to B7, for which the binding result in assay [1] is “no binding”. For the same molecule, in assay [3], the “EC50, PRNT with complement, RSV Long” value was found to be 0.14 µg/mL.

B8: antibody 835 (clone 835) (antibody, human IgG1, kappa, V domains shown)
VH: QVQLVQSGAEVKRPGASVKVSCKASGYTFISYGFSWVRQAPGQGLEWMGWSSVYNGDTNYAQKFHGRVNMTTDTSTNTAYMELRGLRSDDTAVYFCARDRNVVLLPAAPFGGMDVWGQGTMVTVSS
VL: DIQLTQSPSFLSASLEDRVTITCRASQGISSYLAWYQQKPGKAPKLLLDAASTLQSGVPSRFSGSGSGTEFTLTISSLQPEDFATYYCQQLNSYPRTFGQGTKVDIKR
In the case of B8, in assay [1], the binding result is “no binding”.
